Reference: publication PMC3989342

Target: F-actin (endogenous, detected with anti-beta-actin antibodies) (rat (endogenous in hippocampal neurons)) (UniProt P60711)
Test: FRET or BRET; antibody-based acceptor-photobleaching FRET in fixed rat hippocampal neurons, single dendritic spine heads; anti-cofilin AE774 with Alexa 488 secondary (donor), anti-beta-actin AC15 with Alexa 555 secondary (acceptor); F-actin fixed, G-actin mostly extracted; control neurons, 2 min NMDA (nLTD), chronophin (CIN) overexpression

ratio of FRET in the presence versus the absence of nLTD, CIN-expressing neurons: 51%
Substance: cofilin (endogenous cofilin/ADF of rat hippocampal neurons) (from UniProt P45592 1-166) (natural protein)
